What was measured:
Experiment in all cases: purified protein, by the assay type
Details in all cases: other: substrate of GABA-AT, 1 h incubation, 25° C., pH 8.5
NCCCC(=O)O = test system: NCCCC(=O)O
NCCCc1nnn[nH]1 = test system: NCCCc1nnn[nH]1
Method: (§1) After incubation (48 h for the preliminary test, 1 h for determination of kinetic constants), the mixture was quenched with trichloroacetic acid. The resulting [^14C]glutamate was isolated by cation-exchange chromatography, and the DPM (disintegration per minute) value was measured. Controls consisted of the entire incubation mixture with substrates omitted. The substrate kinetic constants kcat and Km were determined by the method of Hanes and Woolf, as referenced above.

NCCCCc1nnn[nH]1 = test system: NCCCCc1nnn[nH]1
Method: as §1

NCCc1nnn[nH]1 = test system: NCCc1nnn[nH]1
Method: as §1

Work on GABA-AT (Sus scrofa) yielded a Km (NCCCC(=O)O) of 2400 µM, a kcat (NCCCC(=O)O) of 0.817 s⁻¹ and a kcat/Km (NCCCC(=O)O) of 340 M⁻¹ s⁻¹. For the same substance, the Km (NCCCc1nnn[nH]1) was 2400 µM, the kcat (NCCCc1nnn[nH]1) was 0.477 s⁻¹ and the kcat/Km (NCCCc1nnn[nH]1) was 195 M⁻¹ s⁻¹. For the same substance, the Km (NCCCCc1nnn[nH]1) was 8000 µM, the kcat (NCCCCc1nnn[nH]1) was 0.693 s⁻¹ and the kcat/Km (NCCCCc1nnn[nH]1) was 86.7 M⁻¹ s⁻¹. The Km (NCCc1nnn[nH]1) was 2300 µM, the kcat (NCCc1nnn[nH]1) was 0.265 s⁻¹ and the kcat/Km (NCCc1nnn[nH]1) was 115 M⁻¹ s⁻¹.

Reference: patent US20070105924A1, “Vigabatrin bioisoteres and related methods of use” (priority 2005, published 2007)
